Experimental data taken from paper PMC10006412.

Target: Newcastle disease virus phosphoprotein (P protein) (Newcastle disease virus)
Assay: cryo-EM structure

Substance: Newcastle disease virus phosphoprotein (P protein) (natural protein)
- stoichiometry N: 4
